The assay has as its target T1, PTPN4, P29074.
T1 sequence (P29074 512-599, limits assumed, looked up): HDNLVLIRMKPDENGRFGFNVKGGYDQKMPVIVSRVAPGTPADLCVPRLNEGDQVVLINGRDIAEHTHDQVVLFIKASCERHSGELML
The experiment in a line: holdup assay. As to conditions: plain residues with an end cap or a label only (N-terminal biotin on a linker: (peg)3).

As to NLNSSEGVPDLLV [SARS-CoV-E, P59637], the pKd entry was “below the threshold”.

(Values after PMC9482650, “Quantitative fragmentomics allow affinity mapping of interactomes” (Nature Communications, 2022).)
